Measured values taken from patent publication US7541450B2, “Ligand-dependent protein splicing” (President and Fellows of Harvard College, priority 2004, dated 2009).
“Also recorded” adds a separate entry of the source.

System: aminoglycoside phosphorylase (KanR)
Assay type: cell-based, S. cerevisiae

B1: intein(N)-ER-intein(C): starting RecA intein with the estrogen receptor ligand binding domain in place of the endonuclease domain, SEQ ID NO: 1 (protein)
chain: CLAEGTRIFDPVTGTTHRIEDVVDGRKPIHVVAAAKDGTLHARPVVSWFDQGTRDVIGLRIAGGAIVWATPDHKVLTEYGWRAAGELRKGDRVAGPGGSGNSLALSLTADQMVSALLDAEPPILYSEYDPTRPFSEASMMGLLTNLADRELVHMINWAKRVPGFVDLTLHDQVHLLECAWLEILMIGLVWRSMEHPGKLLFAPNLLLDRNQGKCVEGMVEIFDMLLATSSRFRMMNLQGEEFVCLKSIILLNSGVYTFLSSTLKSLEEKDHIHRVLDKITDTLIHLMAKAGLTLQQQHQRLAQLLLILSHIRHMSNKRMEHLYSMKCKNVVPLYDLLLEMLDAHRLHAGGSGASRVQAFADALDDKFLHDMLAEELRYSVIREVLPTRRARTFDLEVEELHTLVAEGVVVHN
modifications: M. tuberculosis RecA intein with the estrogen ligand binding domain inserted in place of the RecA endonuclease domain with six amino acid linkers in between.
  geneticin resistance (growth) in the KanR context: confers no geneticin resistance in the presence or absence of 4-HT; also recorded: unable to grown; also recorded: fails to confer geneticin resistance
